T1: mouse 4-1BB protein (extracellular domain) (mouse, UniProt P20334 24-187)
T1 construct: extracellular domain; also called mouse 4-1BB-his; mouse 4-1BB-hFc protein
T1 sequence (looked up): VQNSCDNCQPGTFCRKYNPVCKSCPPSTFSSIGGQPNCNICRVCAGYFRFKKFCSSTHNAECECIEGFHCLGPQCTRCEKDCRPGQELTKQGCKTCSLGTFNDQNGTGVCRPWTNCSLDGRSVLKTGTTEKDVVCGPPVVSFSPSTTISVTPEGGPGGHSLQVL


Legend:
[1] = biological target: T1, mouse 4-1BB protein (extracellular …); test: ELISA, coated mouse 4-1BB; Ab 0.08 ug/ml
Description: (§1) The purified immunogen A (4-1BB-hFc), monkey 4-1BB-his, and mouse 4-1BB-his obtained in Example 1 [for the preparation method, see step 1 of Example 1, preparation of immunogen A], of which the extracellular domain of monkey-derived 4-1BB protein (purchased from ACRO biosystems), the extracellular domain of mouse 4-1BB protein (purchased from sino biological) or other immune detection point proteins respectively were diluted with PBS to a final concentration of 1.0 μg/mL, then added with […] per well to 96-well ELISA plate. It was sealed with plastic film and incubated at 4° C. overnight. The next day, the plate was washed twice with the plate-washing solution [PBS containing 0.01% (v/v) Tween20] and blocking solution [PBS containing 0.01% (v/v) Tween 20 and 1% (v/v) BSA] was added and blocked at room temperature for 2 hours. The blocking solution was discarded and 100 μl of the purified 4-1BB antibody obtained in Example 2 was added per well. After incubated at 37° C. for 2 hours, the plate was washed 3 times with a plate-washing solution [PBS containing 0.01% (v/v) Tween20]. A secondary antibody (purchased from Sigma) labeled with HRP (horseradish peroxidase) was added, and after incubated at 37° C. for 2 hours, the plate was washed 3 times with a plate-washing solution [PBS containing 0.01% (v/v) Tween20]. 100 μl of TMB substrate was added per well. After incubated for 30 minutes at room temperature, 100 μl of stop buffer (1.0N HCl) was added per well. The A450 nm values were read using an ELISA plate reader (SpectraMax 384plus, Molecular Device).

[2] = biological target: T1, mouse 4-1BB protein (extracellular …); test: ELISA, coated mouse 4-1BB; Ab 0.016 ug/ml
Description: as §1

[3] = biological target: T2, human 4-1BB, full length, on transfected cells (human, UniProt Q07011 24-255); test: cell-based or functional assay
[4] = biological target: T3, his-tagged human 4-1BB protein antigen (human, UniProt Q07011 24-186); test: SPR (Biacore T200), antibody captured on anti-human Fc, his-tagged human 4-1BB as analyte
T3 construct: not shown: his tag
Description: The Biacore T200 instrument (purchased) was used to determine the affinity constant. The specific operation and method were based on the instrument manual and the detailed method provided by the manufacturer. Sensors labeled with anti-human Fc were combined with anti-4-1BB fully human antibodies to detect the binding and dissociation of five different gradients of his-tagged human 4-1BB protein antigen. Then software was used to fit the dissociation constant and the binding constant. The affinity constant is the ratio of the dissociation constant and the binding constant.

[5] = biological target: T2, human 4-1BB, full length, on …; test: FACS blocking assay on CHOK1-h4-1BB cells: antibody titrated against his-muCD8a-4-1BBL, bound ligand detected with Alexa 488 anti-mouse CD8a; inhibition rate (%) relative to human IgG
Description: It was washed three times with FACS buffer by centrifugation, and 100 μl of fixative [4% (v/v) paraformaldehyde] per well was added to suspend cells, and it was washed twice with FACS buffer by centrifugation after 10 minutes. The cells were suspended with 100 microliters of FACS buffer, and the results were detected and analyzed with FACS (FACS Calibur, purchased from BD). […] The IgG control is human IgG, and the data in the table is the inhibition rate of the ligand binding by the fully human 4-1BB antibody relative to the control group (human IgG).

T2 sequence (Q07011 24-255): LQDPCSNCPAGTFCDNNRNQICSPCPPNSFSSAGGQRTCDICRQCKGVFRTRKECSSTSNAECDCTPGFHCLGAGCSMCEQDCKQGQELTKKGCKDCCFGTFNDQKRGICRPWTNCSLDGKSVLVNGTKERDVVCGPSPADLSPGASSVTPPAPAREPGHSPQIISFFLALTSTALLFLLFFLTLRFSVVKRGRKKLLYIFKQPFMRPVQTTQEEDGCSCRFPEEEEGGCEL

Binder	OD450 nm [1] [OD450 nm]	OD450 nm [2] [OD450 nm]	NFκB luciferase reporter, 4-1BB+ HEK293; EC50; cross-linked [3] [nM]	NFκB luciferase reporter, 4-1BB+ HEK293; fluorescence multiple vs human IgG; cross-linked; Ab 0.00013 ug/ml [3] [fold]	NFκB luciferase reporter, 4-1BB+ HEK293; fluorescence multiple vs human IgG; cross-linked; Ab 0.00064 ug/ml [3] [fold]	NFκB luciferase reporter, 4-1BB+ HEK293; fluorescence multiple vs human IgG; cross-linked; Ab 0.0032 ug/ml [3] [fold]	NFκB luciferase reporter, 4-1BB+ HEK293; fluorescence multiple vs human IgG; cross-linked; Ab 0.016 ug/ml [3] [fold]	NFκB luciferase reporter, 4-1BB+ HEK293; fluorescence multiple vs human IgG; cross-linked; Ab 0.08 ug/ml [3] [fold]	NFκB luciferase reporter, 4-1BB+ HEK293; fluorescence multiple vs human IgG; cross-linked; Ab 0.4 ug/ml [3] [fold]	NFκB luciferase reporter, 4-1BB+ HEK293; fluorescence multiple vs human IgG; cross-linked; Ab 2 ug/ml [3] [fold]	NFκB luciferase reporter, 4-1BB+ HEK293; fluorescence multiple vs human IgG; cross-linked; Ab 10 ug/ml [3] [fold]	NFκB luciferase reporter, 4-1BB+ HEK293; fluorescence multiple vs human IgG; non-cross-linked; Ab 0.00013 ug/ml [3] [fold]	NFκB luciferase reporter, 4-1BB+ HEK293; fluorescence multiple vs human IgG; non-cross-linked; Ab 0.00064 ug/ml [3] [fold]	NFκB luciferase reporter, 4-1BB+ HEK293; fluorescence multiple vs human IgG; non-cross-linked; Ab 0.0032 ug/ml [3] [fold]	NFκB luciferase reporter, 4-1BB+ HEK293; fluorescence multiple vs human IgG; non-cross-linked; Ab 0.016 ug/ml [3] [fold]	NFκB luciferase reporter, 4-1BB+ HEK293; fluorescence multiple vs human IgG; non-cross-linked; Ab 0.08 ug/ml [3] [fold]	NFκB luciferase reporter, 4-1BB+ HEK293; fluorescence multiple vs human IgG; non-cross-linked; Ab 0.4 ug/ml [3] [fold]	NFκB luciferase reporter, 4-1BB+ HEK293; fluorescence multiple vs human IgG; non-cross-linked; Ab 2 ug/ml [3] [fold]	NFκB luciferase reporter, 4-1BB+ HEK293; fluorescence multiple vs human IgG; non-cross-linked; Ab 10 ug/ml [3] [fold]	Kd [4] [nM]	also measured
113F6C6 (antibody, V domains shown, also called 4-1BB fully human antibody 113F6C6; 113F6F6) VH: QVQLVESGGGVVQPGRSLRLSCAASGLTFSSYGMHWVRQAPGKGLEWVAVIWYDGSNKYYADSVKGRFTISRDNSKNTLYLQMNSLRAEDTAVYYCAREEVLWFGELSYNYYYGMDVWGQGTTVTVSS VL: DIQMTQSPSSLSASVGDRVTITCRASQGISNYLAWYQQKPGKVPKLLIYAASTLQSGVPSRFSGSGSGTDFTLTISSLQPEDVATYYCQKYNSVPLTFGGGTKVEIK	0.05	0.05	0.41	0.7	1.3	2.15	6.55	14.6	14.8	17.1	13.6	1.25	0.95	1.3	4.35	12.7	12.1	23	22.1	17.6	NFκB luciferase reporter, 4-1BB+ HEK293; EC50; non-cross-linked [3]: 3.46 nM; koff [4]: 0.03 s⁻¹; kon [4]: 1.68e+06 M⁻¹ s⁻¹
57B3D10 (antibody, V domains shown, also called 4-1BB fully human antibody 57B3D10) VH: QVQLQESGPGLVKPSETLSLTCTVSGGSISSYYWSWIRQPPGKGLEWIGYIYYSGSTNYNPSLKSRVTISVDTSKSQFSLKLTSVTAADTAVYYCAKDSDYYGSGSYSYWYFDLWGRGTLVTVSS VL: EIVMTQSPATLSVSPGERATLSCRASQSVSSNLAWYQQKPGQAPRLLIYGASTRAPGIPARFSGSGSGTEFTLTISSLQSEDFAVYYCQQYNNWPLTFGGGTKVEIK	0.14	0.16	0.94	0.9	1.15	1.1	2.35	3.3	3.6	5.55	4.3	0.95	0.9	1.4	1.4	2.7	3.5	5	7.5	21.5	koff [4]: 0.0124 s⁻¹; kon [4]: 574000 M⁻¹ s⁻¹; IC50 (read off the curve) [5]: ~2 µg/mL

More lines, main results first:

OD450 nm [1] [OD450 nm]	OD450 nm [2] [OD450 nm]	NFκB luciferase reporter, 4-1BB+ HEK293; EC50; cross-linked [3] [nM]	NFκB luciferase reporter, 4-1BB+ HEK293; fluorescence multiple vs human IgG; cross-linked; Ab 0.00013 ug/ml [3] [fold]	NFκB luciferase reporter, 4-1BB+ HEK293; fluorescence multiple vs human IgG; cross-linked; Ab 0.00064 ug/ml [3] [fold]	NFκB luciferase reporter, 4-1BB+ HEK293; fluorescence multiple vs human IgG; cross-linked; Ab 0.0032 ug/ml [3] [fold]	NFκB luciferase reporter, 4-1BB+ HEK293; fluorescence multiple vs human IgG; cross-linked; Ab 0.016 ug/ml [3] [fold]	NFκB luciferase reporter, 4-1BB+ HEK293; fluorescence multiple vs human IgG; cross-linked; Ab 0.08 ug/ml [3] [fold]	NFκB luciferase reporter, 4-1BB+ HEK293; fluorescence multiple vs human IgG; cross-linked; Ab 0.4 ug/ml [3] [fold]	NFκB luciferase reporter, 4-1BB+ HEK293; fluorescence multiple vs human IgG; cross-linked; Ab 2 ug/ml [3] [fold]	NFκB luciferase reporter, 4-1BB+ HEK293; fluorescence multiple vs human IgG; cross-linked; Ab 10 ug/ml [3] [fold]	NFκB luciferase reporter, 4-1BB+ HEK293; fluorescence multiple vs human IgG; non-cross-linked; Ab 0.00013 ug/ml [3] [fold]	NFκB luciferase reporter, 4-1BB+ HEK293; fluorescence multiple vs human IgG; non-cross-linked; Ab 0.00064 ug/ml [3] [fold]	NFκB luciferase reporter, 4-1BB+ HEK293; fluorescence multiple vs human IgG; non-cross-linked; Ab 0.0032 ug/ml [3] [fold]	NFκB luciferase reporter, 4-1BB+ HEK293; fluorescence multiple vs human IgG; non-cross-linked; Ab 0.016 ug/ml [3] [fold]	NFκB luciferase reporter, 4-1BB+ HEK293; fluorescence multiple vs human IgG; non-cross-linked; Ab 0.08 ug/ml [3] [fold]	NFκB luciferase reporter, 4-1BB+ HEK293; fluorescence multiple vs human IgG; non-cross-linked; Ab 0.4 ug/ml [3] [fold]	NFκB luciferase reporter, 4-1BB+ HEK293; fluorescence multiple vs human IgG; non-cross-linked; Ab 2 ug/ml [3] [fold]	NFκB luciferase reporter, 4-1BB+ HEK293; fluorescence multiple vs human IgG; non-cross-linked; Ab 10 ug/ml [3] [fold]	Kd [4] [nM]	Binder	also measured
0.05	0.05	–	–	–	–	–	–	–	–	–	–	–	–	–	–	–	–	–	–	172E3E3 (antibody, V domains shown) VH: QVQLQESGPGLVKPSGTLSLTCAVSGGSISSSNWWSWVRQPPGKGLEWIGEIYHSGSTNYNPSLKSRVTISVDKSKNQLSLNLSSVTAADTAVYYCARQGGVAGTLYWYFDLWGRGTLVTVSS VL: DIVMTQSPLSLPVTPGEPASISCRSSQGLLHSNGYNYLDWYLQKPGQSPQLLIYLGSNRASGVPDRFIGSGSGTDFTLKIRRVEAEDVGVYYCMQVLQTPWTFGQGTKVEIK	–
0.1	0.18	–	–	–	–	–	–	–	–	–	–	–	–	–	–	–	–	–	–	170D7F2 (antibody, V domains shown) VH: QVQLVQSGAEVKKPGASVKVSCKASGYTFTSYDINWVRQATGQGLEWMGWMNPNSGNTGYAQKFQGRVTMTRNTSISTAYMELSSLRSEDTAVYYCARETGPFDYWGQGTLVTVSS VL: DIQMTQSPSSLSASVGDRVTITCRASQRINNYLNWYQQKPGKAPKLLIYGASSLQSGVPSRFSGSGSGTDFTLTISSLQPEDFATYYCQQSYSTPFTFGPGTKVDIK	–
0.12	0.09	–	–	–	–	–	–	–	–	–	–	–	–	–	–	–	–	–	–	118F3A2 (antibody, V domains shown) VH: QVQLQQWGAGLLKPSETLSLTCGVYGGSFSTNYWSWIRQSPGKGLEWIGEINHSGNTEYNPSLKSRLTISIDTSKNQFSLKLTSVTAADTAVYYCARMGYHSPSFDFWGQGVLVTVSS VL: KIVMTQSPATLSVSPGERATLPCRVSQGIGSNLAWYQQKPGQAPRLLIYGASTRATGVPARFSGSGSGSEFTLTISSLQSEDLALYYCQQYNNWPLTFGGGTKVEIK	–
